Source: US20160053277A1, “Compositions Having Dicamba Decarboxylase Activity and Methods of Use” (PIONEER HI-BRED INTERNATIONAL, INC., priority 2013, published 2016)

B1: 94 (protein, listed as Bacillus thuringiensis)
chain: MANRGDSNMKSLVGVIMGSTSDWETMKYACDILDELNIPYEKKVVSAHRTPDYMFEYAETARERGLKVIIAGAGGAAHLPGMVAAKTNLPVIGVPVQSKALNGLDSLLSIVQMPGGVPVATVAIGKAGSTNAGLLAAQILGSFHDDIHDALELRREAIEKDVREGSELV
B2: 83 (protein, listed as Mycobacterium rhodesiae)
chain: MALIALEEHYAWSPVSAGNVVGSWLETHNVTAYQRLYDRGPLRLEQMDAAGIDFQILSLFDPGVQDDDDTARAVENARRANDDLAETVRAAPDRFGGFATLAPQDPDAAAAELERAVGELGLVGGLINGHTHGRYLDDPAYLGLFECAQRLGVPIYLHPTTPHPAVMDAWFAPYVKDGLHLASWGFAAETGTHALRLIYSGLFDTFPRLQMILGHLGEMLPYAAYRIDRYYGLGGGDDGGRLARLPSEYLRDNFHVTTSGNFNPVAFACALDVMGPDRLMFSVDYPMDDNVTGAEFLRNLEVDDDVRRKVAGENALQLFGDKIPRR
B3: 85 (protein, listed as Maritimibacter alkaliphilus)
chain: MAADRKPGLVSVEEGFMIPEVVAELSRIAGGVPSMKSGPIAGPFMDDLLDIGKGRVARMDADGVAVQILALAAPGVQKFDPDTALALSRLTNDRLAEAIAAHPARFGGLAAAPPQAAREGAKELDRAITTLGLNGLIVNSHTNDLYLDDPSFWPLLEAAEALDVPVYLHPREPAAGIEGGLMAMTGFTVGWAYAVETGTHLLRMIAAGVFDRFPRLRIVLGHLGEMIPFMLDRIDNRYPFEMGVTGAKPLPRKPSDYFRDHVTVATSGMNFNAPMRAAIEVLGADKVMFAADYPMERQDEEVAKFAALDLTPDERKRIGEDNARRVFGL
B4: 97 (protein, listed as Sphingobium sp.)
chain: MAMMIIDCHGHYTVLPKAHDEWREQQKAAFKAGQPAPPYPEISDDEIRETIEANQLRLIKERGADMTIFSPRASAMAPHVGDQSVAVPWAQACNNLIARVVDLFPETFAGVCMLPQSPEADMTSSIAELERCVNELGFIGCNLNPDPGGGHFKHPPLTDRFWYPFYEKMVELDVPAMIHVSGSCNPAMHATGAYYLAADTIAFMQLLQGNLFADFPTLRFIIPHGGGAVPYHWGRFRGLADMLKQPSLDTLLMNNVFFDTCVYHQPGINLLADVIDNKNILFGSEMVGAVRGIDPTTGHYFDDTKRYIDALDISDQERHAIFEGNTRRVFPRLDAKLKARGL
B5: 82 (protein, listed as Rhodopseudomonas palustris)
chain: MAQNETPVIAIEEHYWDPEMVARFPAGENASPFSTLLTELGDVRLRAMDEAGIDVQVLSHGAPAAQKLPPDVAPELTRRVNDRLAEACARFPNRFAAFAALPTPAPEAAARELERCVRDLGFKGAMIHGLTNGLFIDDKRFWPIFEVAEKLDVPIYLHPSVPHADVTRYYYDDYAREFPTVIRPAWGFTVETATQAIRLILSRALESYPRLQIILGHLGETLPFLLWRINQALARPGQTPLDFRKQFCDHFHVTTSGFFSTPALICTMLELGIDRIMFAVDYPYVVNRDGTDWVQQLQISPDDKRKLVGGNARRLLKL
B6: 78 (protein, listed as Marinobacter adhaerens)
chain: MALIDLHAHAPHPDYYDQHPHWGPAFELQSDGDIKLRVGHWVLSLGAPERKQALREAHARGETLDVQEYMAKWRDPEHRLASMDAAGQNAQVLSVPSHCYMYWAEPEFGVPFAKKVNDSLAEYCSAAPDRLMFWAHAPLNVPKEAAKEIRRACTELGAKGLVAGGSNFGGLEFDSPEMDPVWEALCDLDLPMFVHGYNQSVTWGEEANTDRYETTAIVGMNYDESKCFWYMINGGVFDRFPNLKVYITHGGGFVPYQLGRMAQTNPNLDTYHNKKPFLEYLKNFYFDVELHEVPMRQAMVEVIGADRVLYGSNFGGSDAVRHDLTDDLKLSQEDLDKIRWKNACDLLHLDPNKLGKVRG
B7: 80 (protein, listed as Cordyceps militaris)
chain: MAAASTPVVVDIHTHMYPPSYIAMLEKRQTIPLVRTFPQADEPRLILLSSELAALDAALADPAAKLPGRPLSTHFASLAQKMHFMDTNGIRVSVISLANPWFDFLAPDEAPGIADAVNAEFSDMCAQHVGRLFFFAALPLSAPVDAVKASIERVKNLKYCRGIILGTSGLGKGLDDPHLLPVFEAVADAKLLVFLHPHYGLPNEVYGPRSEEYGHVLPLALGFPMETTIAVARMYMAGVFDHVRNLQMLLAHSGGTLPFLAGRIESCIVHDGHLVKTGKVPKDRRTIWTVLKEQIYLDAVIYSEVGLQAAIASSGADRLMFGTDHPFFPPIEEDVQGPWDSSRLNAQAVIKAVGEGSSDAAAVMGLNAVRVLSLKAE
B8: 6 (protein)
chain: MAEILSPEESIYYSKLSNDILAEGIKKNPTRFRGFAALPTPDPIQAAMELERCIKLGGFVGAIINGHINGHYLDEIQFDPILEAADALDVPLYIHPAVPPKAIIDTYYKMNDTYAQTVMVSGGWGWHIETGVHVLRLISSGVFDRHPNLKIVIGHLGEGLPFFMHRLNNAIGGNLKKSYSTYLKENIYYTISGFNDPDLFQFVLKKVGENNIMFSSDYPFNFPKREVELFNELNISEEVREKISFKNAERILKI
modifications: Treponema brennaborense
B9: 96 (protein)
chain: MAPLIVDVHTHVYPPAYMQMLRSRKTVPYVHDPSNNRDPRLIILSSDDDASIPLDQRGRPVDSSYWDINVKLSFMRQHGINCSVISLANPWLDFVEPAEAQMWAERINDDLEKTCATVNKAADPGNTLTLDQKETLFAFGALPLSAPSSESVVAEIKRLKTLEHLRGVIMGTSGLGKGLDDARLDPVWEALQETDMLMFLHPHYGLPEEAYGGPETTGRYGHVLPLALGFPLETTIAVTRMLLSGVFDRFPRLKILLAHSGGTLPFLAGRIESCILHERKFISGGGDVQGPQRSVWDVLKTNIYLDAVVYGKPGLEAAMTASGSDRLLFGTDHPFFPPLDSKDNSWPSVTTNYQAIHATFDTNSKTVADVLGGNAARILNLK
modifications: Aspergillus nidulans
B10: 90 (protein)
chain: MAATIDRVLYLGNATQRRYTSATVSVPRIFGKVALEEHVGTSIWAKYNLTPPANAVVGVLNRPPTLPNTLDTIARLDDINGRLSSMNHSGIGYVIVSLSSPGIQGVHDTALAIKFSTDINDELYLKYANAYPDKFAFFATVPMQDPVAAASELERAVSLLGAKGAAINGYTDIGPPGNSTTRYLDDPINAPFWSKVAALNVPIYLHPRAPPPSQQLVYNYPNNSLSAYPGLVTGGFAYGAETAVHALRLMLSGLFDTHPNIQIILGHAAEGLPFLIHRSDTQLAAEVPGTNGPYKRPLRYYLRNNFYATLSGVRRLSTTQCTLAEMGEERVLFSVDYPFQSNEDAADWFDGVEGMSVETKRKVARGNARRLFNLTVDLDERQIDGDFM
modifications: Pyrenophora tritici-repentis
B11: 91 (protein, listed as Botryotinia fuckeliana)
chain: MASFVCNFGKAALATLLLTPSISAADYTPQETVLNSGRPTFYDASTSIPGKIALEEHVGNDLLNGLYTVPYYPNTNEPQYSDSVYIADVGEKMLDIPSRIANMDAANISISVLTFGGPGIQGVFNATYATYAAGYVNDYLYKNYKNNANYTGRFEFWCSNALQEPSKAATELERCVKELGGVGSFVGGYTNNGGINGTANDIVYLDDPSMEPFLEKVVELDVPIYLHPRMPAPSQLLSVKGYEFLGSSPWGFSSETGAHALRLMVSGTLDKYPTLKIVLGHCGEGLPFFLPRIDQRLRHFKKELFNNTLTMEEYWLRNFYVTTAGVQDAGTLVDTIKRTGEDRVMFSVDYPFEDTVEIAGWFDRLEMNTLTKTKLAYENAKALLKLTCYVDAEKRPRIFNKHHVDDIIKHTHSPCIWTLFH
B12: 93 (protein, listed as Mucilaginibacter paludis)
chain: MAKYGKHITINKNMRIVTLEEHISFPEMADQIPKAALGSFGRSEAMQRIAPKLADITGERLKSMDANGISMQVLSVDSSGVNLLSPQQGPAFATQYNDLIANRIAGFEKRFTAFAHLPMTAPFAAADELERAVKEHHFCGAMIRGLTGDQFLDHPQFAPIFERAQKLDVPIYLHPGLPPKGVADIYYSGLPNYSGMAEALACYGWGWHSETALHVLRLLFSGIFDQYPKLKLVIGHMGEMLPMMMARSEKAFKPGNGGANVRTLTDTFRSQVYLTTSGFFTQPPLKIALDTFGIDHVMFSVDYPFSTNEMGIEFLNEIDLPDEEVARIAHGNADKLLNLKA
B13: 86 (protein, listed as Sphingopyxis alaskensis)
chain: MALGASVASREASAQMAKAPMRKIATEEAFATPELAKAWLEIARSEPNSSLDIPTGILSIFDNPRPGSNQDRFRRQLLDVDAERIRDMDEAGVDMQLLSVTIPGVQIFEPARAGELAVTTNDHLAAAIARRPTRFAGLACFAPHDPVQATREMERAVNALGLKGFIVNSHTQDLYLDDPRFAPVLEAAQSLDCPIYLHPRAPSNGMAAPFRDYSMGGSIWGFGVEAGTHAVRMILSGVFDRYPRLRIVLGHMGEALPFWMWRLDHMAARRAKDGRMKPLSLAPSEYFKRNFAVTTSGFESPDVLDLVIKVAGIENIMWAIDYPYESSRDAVTFIEGADLTASQRASIFHRNAVRHFRLS
B14: 84 (protein, listed as Mycobacterium rhodesiae)
chain: MASLIALEEHYAWDPASEGNVVATWLRANNGVAYDRLYDRGPLRIEQMDAAGIDFQILSLFDPGVQDEVDAVRAVDLARRANDDLAESVRANPSRFGGFATLATQQPDAAVAEFDRAVTELGLVGGLINGHCQGRYLDDPAYEALFSRAEALGAPIYLHPTTPHPAVMDAWFAPYVGDGLHLASWGFAAETGTHVLRLIYSGLFDKFPRLQMIIGHLGEMLPFAAYRIDRYYGLGGGGTGHTLQHLPSDYLRNNFHVTTSGNFCSPALDCTLDVMGADRVMFSVDYPMDDNQTGADFLASYPMDDTNRRKVASENALRLFGDRIPAALRN

assay: 14C assay with IPTG-induced recombinant E. coli cells: 14CO2 captured from [14C]-carboxyl-labeled dicamba; settings: dicamba decarboxylation activity of the protein of the given SEQ ID NO; High / Low / No

Row | Molecule | Enzymatic Detection level
1 | B1 | No
2 | B2 | Low
3 | B3 | Low
4 | B4 | No
5 | B5 | Low
6 | B6 | Low
7 | B7 | Low
8 | B8 | No
9 | B9 | No
10 | B10 | Low
11 | B11 | Low
12 | B12 | Low
13 | B13 | Low
14 | B14 | Low

same assay, conditions: induced recombinant E. coli cells, [14C]-carboxyl-labeled dicamba, 14CO2 capture

Row | Molecule | Dicamba Decarboxylase Activity
15 | B1 | No
16 | B2 | Low
17 | B3 | Low
18 | B4 | No
19 | B5 | Low
20 | B6 | Low
21 | B7 | Low
22 | B8 | No
23 | B9 | No
24 | B10 | Low
25 | B11 | Low
26 | B12 | Low
27 | B13 | Low
28 | B14 | Low

assay: Saturation mutagenesis of SEQ ID NO:109: dicamba decarboxylation activity of point mutants (carbon dioxide released); settings: decarboxylation activity (carbon dioxide released) of point mutant compared with unmutated backbone protein; backbone SEQ ID NO: 109

Row | Molecule | Fold Activity
29 | B1 | 1.5
30 | B2 | 1.9
31 | B3 | 1.4
32 | B4 | 2.9
33 | B5 | 0.9
34 | B6 | 1.1
35 | B7 | 0.8
36 | B8 | 0.9
37 | B9 | 1.1
38 | B10 | 1.7
39 | B11 | 1.6
40 | B12 | 1.6
41 | B13 | 1.4
42 | B14 | 1
